Test results from US20160010147, “ENZYME STALLING METHOD” (OXFORD NANOPORE TECHNOLOGIES LIMITED, published 2016).

Columns and labels:
[1] = target: T1, T4 Dda-E94C/A360C helicase (Enterobacteria phage T4, UniProt P32270 SEQ:1-439, E94C/A360C, then (ΔM1)G1G2); assay: EMSA; one helicase bound from 238 nM, two from 475 nM up to 3800 nM; 100 nM DNA; settings: two 10T ssDNA regions
T1 sequence: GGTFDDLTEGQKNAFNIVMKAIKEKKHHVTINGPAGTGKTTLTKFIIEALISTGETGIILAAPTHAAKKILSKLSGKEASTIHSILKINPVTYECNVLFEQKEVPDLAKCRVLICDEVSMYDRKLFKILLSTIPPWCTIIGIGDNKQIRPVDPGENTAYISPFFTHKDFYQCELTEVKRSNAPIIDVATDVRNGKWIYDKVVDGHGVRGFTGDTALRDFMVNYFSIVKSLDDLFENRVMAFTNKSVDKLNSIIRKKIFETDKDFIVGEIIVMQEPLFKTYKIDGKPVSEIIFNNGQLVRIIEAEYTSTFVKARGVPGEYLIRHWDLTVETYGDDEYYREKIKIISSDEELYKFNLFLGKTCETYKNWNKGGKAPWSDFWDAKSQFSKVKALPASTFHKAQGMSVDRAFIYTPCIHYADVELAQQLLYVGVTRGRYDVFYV
Protocol: T4 Dda E94C/A360C was buffer exchanged into 25 mM phosphate pH 8.0, 151.5 mM KCl and serially diluted. The helicase and DNA were then mixed (1:1, v/v) with the DNA construct samples 9 and 10 described above (final concentration DNA=100 nM, helicase concentrations investigated=3800 nM, 1900 nM, 950 nM, 475 nM, 238 nM, 0 nM). The DNA and enzyme volumes were then incubated at ambient temperature for 1.5 hours. Dye free loading buffer (5×, 7.5 μL) was added to each sample (30 μL). Each sample (37.5 μL) was then loaded onto 4-20% TBE gel and run at 160 V for 90 minutes. The gel was then stained using SYBR.

[2] = target: T1, T4 Dda-E94C/A360C helicase; assay: EMSA; one enzyme bound only at 312.5-5000 nM; 1 uM DNA; 25 mM phosphate pH 8.0, 151.5 mM KCl; settings: 5' ssDNA overhang with duplex
Protocol: (§1) DNA constructs (1 μM or 100 nM final concentration) detailed below in Table 12 were incubated in appropriate buffer with serially diluted T4 Dda-E94C/A360C. The samples were then loaded on 4-20% TBE gels and run at 160 V for 90 minutes. The gels containing entries 1-6 were then stained using SYBR. […] The length of the region labelled 1 is varied from 2 to 50 to optimise conditions so that it is possible to control the number of T4 Dda-E94C/A360C helicases which can bind to the DNA,

[3] = target: T1, T4 Dda-E94C/A360C helicase; assay: EMSA; up to six enzymes bound at 5000 nM; 1 uM DNA; settings: 5' ssDNA overhang with duplex
Protocol: as §1

[4] = target: T1, T4 Dda-E94C/A360C helicase; assay: EMSA; up to five helicases bound; ATP/MgCl2 gives strand displacement; settings: 50 nt ssDNA overhang with duplex
Protocol: (§2) The annealed DNA complexes (sequences tested are shown in table 11 below) were mixed in a ratio of (1:1, v/v) with T4 Dda-E94C/A360C in 25 mM phosphate pH 8.0, 200 mM KCl giving final concentrations of T4 Dda-E94C/A360C (2000 nM) and DNA (100 nM). The helicase was allowed to bind to the DNA for 2 hours at ambient temperature. Capture strand (SEQ ID NO: 37, 20 μM) was added to each sample to bind any unbound enzyme and the samples incubated at ambient temperature for 30 mins. Buffer was added to the samples (DNA construct from table 11=50 nM, capture DNA (SEQ ID NO: 37)=10 μM and T4 Dda-E94C/A360C=1000 nM) and they were incubated at ambient temperature for one hour (either Buffer 1=25 mM phosphate pH 8.0, 200 mM KCl, 20 mM MgCl2, 10 mM ATP or Buffer 2=25 mM phosphate pH 8.0, 1 M KCl, 25 mM potassium ferricyanide(III), 75 mM potassium ferrocyanide, 20 mM MgCl2, 10 mM ATP). Loading buffer (25 mM Phosphate pH8.0, 151.5 mM KCl, 25% Glycerol, 125 mM EDTA) is added to each sample to quench the helicase activity. The samples were loaded onto 4-20% TBE gel and the gel run at 160 V for 1.5 hours. The Gel was then stained with SYBR gold in order to observe the DNA bands.

[5] = target: T1, T4 Dda-E94C/A360C helicase; assay: EMSA; up to two enzymes bound; unbound only at 169 nM; 100 nM DNA; settings: 5' ssDNA overhang with duplex
Protocol: as §1

[6] = target: T1, T4 Dda-E94C/A360C helicase; assay: EMSA; unbound DNA only up to 3750 nM; 1 uM DNA; settings: 5' ssDNA overhang with duplex
Protocol: as §1

[7] = target: T1, T4 Dda-E94C/A360C helicase; assay: EMSA; one helicase stalled in at least one buffer with ATP/MgCl2; settings: 50 nt ssDNA overhang with duplex
Protocol: as §2

[8] = target: T1, T4 Dda-E94C/A360C helicase; assay: EMSA; up to two enzymes bound; one faint at 169 nM; 100 nM DNA; settings: 5' ssDNA overhang with duplex
Protocol: as §1

[9] = target: T1, T4 Dda-E94C/A360C helicase; assay: EMSA; up to five helicases bound; one helicase stalled after ATP/MgCl2; settings: 50 nt ssDNA overhang with duplex
Protocol: as §2

[10] = target: T1, T4 Dda-E94C/A360C helicase; assay: EMSA; up to five helicases bound; one, faintly two, stalled after ATP/MgCl2; settings: 50 nt ssDNA overhang with duplex
Protocol: as §2

[11] = target: T1, T4 Dda-E94C/A360C helicase; assay: EMSA; two enzymes bound at 625-5000 nM, one at 312.5 nM; 1 uM DNA; settings: 5' ssDNA overhang with duplex
Protocol: as §1

B1: Table 16 construct 9 (non-forked) (mixed)
DNA 1: TTTTTTTTTTTTTTTTTTTTGGTTGTTTCTGTTGGTGCTGATATTGCGCCATCAGATTGTGTTTGTTAGTCGCT
DNA 2: GCAATATCAGCACCAACAGAAACAACC
DNA 3: AGCGACTAACAAACACAATCTGATGGC
modifications: 25 SpC3 at 5' end; 2 iSp18 after each SEQ 37; 4 nitroindoles between SEQ 10 and SEQ 41
- binding result ([1]; two duplexes): binds

B2: Table 16 construct 10 (forked) (mixed)
DNA 1: TTTTTTTTTTTTTTTTTTTTGGTTGTTTCTGTTGGTGCTGATATTGCGCCATCAGATTGTGTTTGTTAGTCGCT
DNA 2: GCAATATCAGCACCAACAGAAACAACCT
DNA 3: AGCGACTAACAAACACAATCTGATGGC
modifications: 25 SpC3 at 5' end; 2 iSp18 after each SEQ 37; 4 nitroindoles between SEQ 10 and SEQ 41; 6 iSp18 at 3' end of SEQ 12
- binding result ([1]; forked duplex): binds

B3: Table 12 construct 1 (10T region) (mixed)
DNA 1: TTTTTTTTTTTCGCTGCTCCACAGGTCTCAGCTTGAGCAGCGA
DNA 2: TCGCTGCTCAAGCTGAGACCTGTGGAGCAGCGA
modifications: 5 iSpC3 at 5' end; 4 iSpC3 between SEQ 37 and SEQ 36
- binding result [2]: binds

B4: Table 12 construct 3 (50T region) (mixed)
DNA 1: TTTTTTTTTTTTTTTTTTTTTTTTTTTTTTTTTTTTTTTTTTTTTTTTTTTCGCTGCTCCACAGGTCTCAGCTTGAGCAGCGA
DNA 2: TCGCTGCTCAAGCTGAGACCTGTGGAGCAGCGA
modifications: 5 iSpC3 at 5' end; 4 iSpC3 between SEQ 9 and SEQ 36
- binding result [3]: binds

B5: Table 11 construct 1 (no spacers) (mixed)
DNA 1: TTTTTTTTTTTTTTTTTTTTTTTTTTTTTTTTTTTTTTTTTTTTTTTTTTTCGCTGCTCCACAGGTCTCAGCTTGAGCAGCGA
DNA 2: TCGCTGCTCAAGCTGAGACCTGTGGAGCAGCGA
- binding result [4]: binds

B6: Table 12 construct 8 (18T region) (mixed)
DNA 1: TTTTTTTTTTTTTTTTTTTCGCTGCTCCACAGGTCTCAGCTTGAGCAGCGA
DNA 2: TCGCTGCTCAAGCTGAGACCTGTGGAGCAGCGA
modifications: 5 iSpC3 at 5' end; 4 iSp18 between SEQ 40 and SEQ 36
- binding result [5]: binds

B7: Table 12 construct 5 (4T region) (mixed)
DNA 1: TTTTTCGCTGCTCCACAGGTCTCAGCTTGAGCAGCGA
DNA 2: TCGCTGCTCAAGCTGAGACCTGTGGAGCAGCGA
modifications: 5 iSpC3 at 5' end; 4 iSpC3 between T4 and SEQ 36
- binding result [6]: no binding

B8: Table 11 construct 4 (12 iSpC3) (mixed)
DNA 1: TTTTTTTTTTTTTTTTTTTTTTTTTTTTTTTTTTTTTTTTTTTTTTTTTTTCGCTGCTCCACAGGTCTCAGCTTGAGCAGCGA
DNA 2: TCGCTGCTCAAGCTGAGACCTGTGGAGCAGCGA
modifications: 12 iSpC3 between SEQ 9 and SEQ 36
- binding result [7]: binds

B9: Table 12 construct 4 (2T region) (mixed)
DNA 1: TTTCGCTGCTCCACAGGTCTCAGCTTGAGCAGCGA
DNA 2: TCGCTGCTCAAGCTGAGACCTGTGGAGCAGCGA
modifications: 5 iSpC3 at 5' end; 4 iSpC3 between TT and SEQ 36
- binding result [6]: no binding

B10: Table 11 construct 5 (1 iSp18) (mixed)
DNA 1: TTTTTTTTTTTTTTTTTTTTTTTTTTTTTTTTTTTTTTTTTTTTTTTTTTTCGCTGCTCCACAGGTCTCAGCTTGAGCAGCGA
DNA 2: TCGCTGCTCAAGCTGAGACCTGTGGAGCAGCGA
modifications: 1 iSp18 between SEQ 9 and SEQ 36
- binding result [7]: binds

B11: Table 12 construct 7 (16T region) (mixed)
DNA 1: TTTTTTTTTTTTTTTTTCGCTGCTCCACAGGTCTCAGCTTGAGCAGCGA
DNA 2: TCGCTGCTCAAGCTGAGACCTGTGGAGCAGCGA
modifications: 5 iSpC3 at 5' end; 4 iSp18 between SEQ 39 and SEQ 36
- binding result [8]: binds

B12: Table 11 construct 2 (4 iSpC3) (mixed)
DNA 1: TTTTTTTTTTTTTTTTTTTTTTTTTTTTTTTTTTTTTTTTTTTTTTTTTTTCGCTGCTCCACAGGTCTCAGCTTGAGCAGCGA
DNA 2: TCGCTGCTCAAGCTGAGACCTGTGGAGCAGCGA
modifications: 4 iSpC3 between SEQ 9 and SEQ 36
- binding result [7]: binds

B13: Table 11 construct 3 (8 iSpC3) (mixed)
DNA 1: TTTTTTTTTTTTTTTTTTTTTTTTTTTTTTTTTTTTTTTTTTTTTTTTTTTCGCTGCTCCACAGGTCTCAGCTTGAGCAGCGA
DNA 2: TCGCTGCTCAAGCTGAGACCTGTGGAGCAGCGA
modifications: 8 iSpC3 between SEQ 9 and SEQ 36
- binding result [7]: binds

B14: Table 11 construct 6 (2 iSp18) (mixed)
DNA 1: TTTTTTTTTTTTTTTTTTTTTTTTTTTTTTTTTTTTTTTTTTTTTTTTTTTCGCTGCTCCACAGGTCTCAGCTTGAGCAGCGA
DNA 2: TCGCTGCTCAAGCTGAGACCTGTGGAGCAGCGA
modifications: 2 iSp18 between SEQ 9 and SEQ 36
- binding result [7]: binds

B15: Table 11 construct 7 (3 iSp18) (mixed)
DNA 1: TTTTTTTTTTTTTTTTTTTTTTTTTTTTTTTTTTTTTTTTTTTTTTTTTTTCGCTGCTCCACAGGTCTCAGCTTGAGCAGCGA
DNA 2: TCGCTGCTCAAGCTGAGACCTGTGGAGCAGCGA
modifications: 3 iSp18 between SEQ 9 and SEQ 36
- binding result [9]: binds

B16: Table 11 construct 8 (4 iSp18) (mixed)
DNA 1: TTTTTTTTTTTTTTTTTTTTTTTTTTTTTTTTTTTTTTTTTTTTTTTTTTTCGCTGCTCCACAGGTCTCAGCTTGAGCAGCGA
DNA 2: TCGCTGCTCAAGCTGAGACCTGTGGAGCAGCGA
modifications: 4 iSp18 between SEQ 9 and SEQ 36
- binding result [10]: binds

B17: Table 11 construct 9 (5 iSp18) (mixed)
DNA 1: TTTTTTTTTTTTTTTTTTTTTTTTTTTTTTTTTTTTTTTTTTTTTTTTTTTCGCTGCTCCACAGGTCTCAGCTTGAGCAGCGA
DNA 2: TCGCTGCTCAAGCTGAGACCTGTGGAGCAGCGA
modifications: 5 iSp18 between SEQ 9 and SEQ 36
- binding result [10]: binds

B18: Table 12 construct 2 (20T region) (mixed)
DNA 1: TTTTTTTTTTTTTTTTTTTTTCGCTGCTCCACAGGTCTCAGCTTGAGCAGCGA
DNA 2: TCGCTGCTCAAGCTGAGACCTGTGGAGCAGCGA
modifications: 5 iSpC3 at 5' end; 4 iSpC3 between SEQ 38 and SEQ 36
- binding result [11]: binds
